These results are taken from patent US20240016917A1 (ACADEMIA SINICA, published 2024).

Experiment [1] addresses T1, SARS-CoV-2 S protein (entire S ectodomain) (SARS-CoV-2, UniProt P0DTC2 14-1209).
In experiment [2] the target is T1, SARS-CoV-2 S protein (entire S …). The experiment can be described thus: biolayer interferometry (BLI).
For the next experiment, the target named is Beta (SARS-CoV-2).
The target of a further experiment is Alpha (SARS-CoV-2).

B1: monoclonal antibody (mAb) m31A7 (antibody, V domains shown)
VH: EVQLQQSGPEMVKPGASVKISCKTSGYTFTEYTIYWVKQSHGKSLEWLGGINPNIGDTTYNQKFKGKATLTVDTSSSTAYMELRSLTSEDSAVYYCAREVYNYSFAYWGQGTLVTVSA
VL: DIVMSQSPSSLAVSVGEKVTMSCKSSQSLLYSSNQKNYLAWYQQKLGQTPKLLIYWASSRESGVPDRFTGSGSGTDFTLTISSVRAEDLAVYYCQQYYRYPLTFGVGTKLELKR
Take B1: the EC50 in experiment [1] turned out to be 0.0312 nM; in the experiment with WT, 0.0685 nM; in the experiment with Beta, 0.0325 nM; in the experiment with D614G, 0.0321 nM; with Alpha it was 0.0446 nM. For the same molecule, in experiment [2], the affinity, expressed as Kd, was 0.0709 nM.

The term EC50 denotes the midpoint of the concentration-response curve. Low values mean a more potent agent, high ones a less potent agent. Usually Kd stands for the concentration at which binding is half-saturated. Read a low Kd as a tighter complex.
